In paper PMC8263624, “Asymmetric reconstruction of mammalian reovirus reveals interactions among RNA, transcriptional factor µ2 and capsid proteins” (Nature Communications, 2021):

Molecular target: T1, capsid shell protein (CSP) λ1 (Mammalian reovirus serotype Dearing 3, UniProt P15024 1-1275)
T1 construct: capsid shell protein λ1 of mammalian reovirus serotype Dearing 3, native in the virus particle; 120 copies in each particle as λ1A/λ1B dimers; five pairs (1-5) around each vertex; also called λ1A; λ1B
T1 sequence: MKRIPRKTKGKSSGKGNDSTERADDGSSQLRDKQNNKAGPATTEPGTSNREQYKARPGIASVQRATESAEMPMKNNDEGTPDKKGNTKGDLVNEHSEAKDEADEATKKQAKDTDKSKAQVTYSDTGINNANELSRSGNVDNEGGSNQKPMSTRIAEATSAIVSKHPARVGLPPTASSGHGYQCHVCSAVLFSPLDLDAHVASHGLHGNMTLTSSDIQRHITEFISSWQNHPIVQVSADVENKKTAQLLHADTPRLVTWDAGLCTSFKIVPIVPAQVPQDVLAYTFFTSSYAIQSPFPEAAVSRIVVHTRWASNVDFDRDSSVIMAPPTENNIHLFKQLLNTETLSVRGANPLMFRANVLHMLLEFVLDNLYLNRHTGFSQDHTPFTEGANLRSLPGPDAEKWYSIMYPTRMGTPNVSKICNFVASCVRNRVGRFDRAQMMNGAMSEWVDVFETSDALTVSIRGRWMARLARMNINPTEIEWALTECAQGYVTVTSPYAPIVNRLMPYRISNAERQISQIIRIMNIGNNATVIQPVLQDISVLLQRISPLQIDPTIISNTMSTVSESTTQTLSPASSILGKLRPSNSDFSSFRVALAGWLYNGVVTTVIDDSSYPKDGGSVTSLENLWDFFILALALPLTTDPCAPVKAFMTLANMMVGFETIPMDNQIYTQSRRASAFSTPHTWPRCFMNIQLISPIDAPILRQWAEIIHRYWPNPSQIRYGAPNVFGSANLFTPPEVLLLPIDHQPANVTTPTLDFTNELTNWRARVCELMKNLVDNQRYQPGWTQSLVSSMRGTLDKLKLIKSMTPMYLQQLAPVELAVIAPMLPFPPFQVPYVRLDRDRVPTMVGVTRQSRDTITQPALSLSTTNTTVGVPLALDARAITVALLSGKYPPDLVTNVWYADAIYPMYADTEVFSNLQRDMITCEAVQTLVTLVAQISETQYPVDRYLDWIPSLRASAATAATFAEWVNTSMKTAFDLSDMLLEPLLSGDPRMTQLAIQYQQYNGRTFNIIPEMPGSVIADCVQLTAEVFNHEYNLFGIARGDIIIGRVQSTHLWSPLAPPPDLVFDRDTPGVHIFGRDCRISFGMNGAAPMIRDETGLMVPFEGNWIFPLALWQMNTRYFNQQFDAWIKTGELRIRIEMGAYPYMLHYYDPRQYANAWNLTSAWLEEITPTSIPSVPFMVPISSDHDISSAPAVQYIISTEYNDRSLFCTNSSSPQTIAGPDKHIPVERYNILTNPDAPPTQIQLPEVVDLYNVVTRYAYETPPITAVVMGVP
Assay: cryo-EM structure; asymmetric (C1) vertex sub-particle reconstructions of native MRV ISVP at 3.3 Å, asymmetric full ISVP at 4.3 Å; isolated virus particles in PBS pH 7.4; proteins assembled in the particle, in situ
Details: both partners purified

B1: RNA-dependent RNA polymerase (RdRp) λ3 (enzyme)
chain: MSSMILTQFGPFIESISGITDQSNDVFEDAAKAFSMFTRSDVYKALDEIPFSDDAMLPIPPTIYTKPSHDSYYYIDALNRVRRKTYQGPDDVYVPNCSIVELLEPHETLTSYGRLSEAIENRAKDGDSQARIATTYGRIAESQARQIKAPLEKFVLALLVAEAGGSLYDPVLQKYDEIPDLSHNCPLWCFREICRHISGPLPDRAPYLYLSAGVFWLMSPRMTSAIPPLLSDLVNLAILQQTAGLDPSLVKLGVQICLHAAASSSYSWFILKTKSIFPQNTLHSMYESLEGGYCPNLEWLEPRSDYKFMYMGVMPLSAKYARSAPSNDKKARELGEKYGLSSVVGELRKRTKTYVKHDFASVRYIRDAMACTSGIFLVRTPTETVLQEYTQSPEIKVPIPQKDWTGPIGEIRILKDTTSSIARYLYRTWYLAAARMAAQPRTWDPLFQAIMRSQYVTARGGSGAALRESLYAINVSLPDFKGLPVKAATKIFQAAQLANLPFSHTSVAILADTSMGLRNQVQRRPRSIMPLNVPQQQVSAPHTLTADYINYHMNLSPTSGSAVIEKVIPLGVYASSPPNQSINIDISACDASITWDFFLSVIMAAIHEGVASSSIGKPFMGVPASIVNDESVVGVRAARPISGMQNMIQHLSKLYKRGFSYRVNDSFSPGNDFTHMTTTFPSGSTATSTEHTANNSTMMETFLTVWGPEHTDDPDVLRLMKSLTIQRNYVCQGDDGLMIIDGTTAGKVNSETIQNDLELISKYGEEFGWKYDIAYDGTAEYLKLYFIFGCRIPNLSRHPIVGKERANSSAEEPWPAILDQIMGVFFNGVHDGLQWQRWIRYSWALCCAFSRQRTMIGESVGYLQYPMWSFVYWGLPLVKAFGSDPWIFSWYMPTGDLGMYSWISLIRPLMTRWMVANGYVTDRCSTVFGNADYRRCFNELKLYQGYYMAQLPRNPKKSGRAASREVREQFTQALSDYLMQNPELKSRVLRGRSEWEKYGAGIIHNPPSLFDVPHKWYQGAQEAAIATREELAEMDETLMRARRHSYSSFSKLLEAYLLVKWRMCEAREPSVDLRLPLCAGIDPLNSDPFLKMVSVGPMLQSTRKYFAQTLFMAKTVSGLDVNAIDSALLRLRTLGADKKALTAQLLMVGLQESEADALAGKIMLQDVNTVQLARVVNLAVPDTWMSLDFDSMFKHHVKLLPKDGRHLNTDIPPRMGWLRAILRFLGAGMVMTATGVAVDIYLEDIHGGGRSLGQRFMTWMRQEGRSA
notes: RdRp λ3 of mammalian reovirus serotype Dearing 3, native in the virus particle; domains stated as residues 1-386, 387-556 and 595-690, 557-594 and 691-792, 793-901, 902-1267; Part of the transcribing enzyme complex (TEC) with µ2; ten TECs in each particle
Q: Does B1 bind?
A: binds
